Source: patent publication JP2018153172A (dated 2018)
Ends that are not written are not given here.

Legend:
[1] = target: T1, SEQ ID NO 127 (15-residue oligopeptide of human gp130) (human, also: linker added for immobilisation); test: peptide microarray, antibody at 10 ug/mL, fluorescence
T1 construct: also called 配列番号127
T1 peptide: VQDLKPFTEYVFRIR

[2] = target: T2, SEQ ID NO 128 (15-residue oligopeptide of human gp130) (human, also: linker added for immobilisation); test: as above
T2 construct: also called 配列番号128
T2 peptide: DLKPFTEYVFRIRCM

[3] = target: T3, SEQ ID NO 108 (15-residue oligopeptide of human gp130) (human, also: linker added for immobilisation); test: as above
T3 construct: also called 配列番号108
T3 peptide: SIKSVIILKYNIQYR

[4] = target: T4, SEQ ID NO 109 (15-residue oligopeptide of human gp130) (human, also: linker added for immobilisation); test: as above
T4 construct: also called 配列番号109
T4 peptide: KSVIILKYNIQYRTK

[5] = target: T5, SEQ ID NO 110 (15-residue oligopeptide of human gp130) (human, also: linker added for immobilisation); test: as above
T5 construct: also called 配列番号110
T5 peptide: VIILKYNIQYRTKDA

[6] = target: T6, 可溶性ヒトgp130受容体 (soluble human gp130 receptor, extracellular region of SEQ ID NO 1 with six histidines) (human, UniProt P40189 23-619); test: SPR, Biacore T200, gp130 amine-coupled on CM5, antibody as analyte
T6 construct: Secreted from CHO DG44 cells and purified on HisTrap; no cleavage site is stated; also called 可溶性ヒトgp130受容体タンパク質; ヒト可溶性gp130受容体
T6 sequence: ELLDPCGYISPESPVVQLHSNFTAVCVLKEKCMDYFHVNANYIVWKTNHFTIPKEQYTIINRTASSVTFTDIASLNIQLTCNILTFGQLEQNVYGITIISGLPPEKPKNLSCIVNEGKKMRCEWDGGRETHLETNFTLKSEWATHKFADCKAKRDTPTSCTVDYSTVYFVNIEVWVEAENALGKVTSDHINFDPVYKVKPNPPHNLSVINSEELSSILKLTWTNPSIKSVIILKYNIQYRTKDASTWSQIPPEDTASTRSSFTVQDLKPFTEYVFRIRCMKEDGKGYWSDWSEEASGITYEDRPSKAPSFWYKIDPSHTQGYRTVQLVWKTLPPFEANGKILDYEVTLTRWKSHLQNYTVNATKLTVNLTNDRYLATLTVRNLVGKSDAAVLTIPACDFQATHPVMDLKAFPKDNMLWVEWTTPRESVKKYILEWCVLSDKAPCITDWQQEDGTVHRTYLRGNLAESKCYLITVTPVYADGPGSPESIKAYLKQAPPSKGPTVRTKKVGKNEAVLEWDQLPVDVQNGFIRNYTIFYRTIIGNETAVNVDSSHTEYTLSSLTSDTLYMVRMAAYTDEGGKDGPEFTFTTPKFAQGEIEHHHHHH

[7] = target: T6, 可溶性ヒトgp130受容体 (soluble human gp130 …); test: SPR, Biacore T200, gp130 on CM5 (4023 RU), COS1 supernatant as analyte, off-rate screening
[8] = target: T6, 可溶性ヒトgp130受容体 (soluble human gp130 …); test: SPR, Biacore T200, gp130 amine-coupled on CM5 (389 RU), antibody as analyte
[9] = target: T6, 可溶性ヒトgp130受容体 (soluble human gp130 …); test: SPR, Biacore T200, gp130 on CM5, antibody as analyte
[10] = target: T6, 可溶性ヒトgp130受容体 (soluble human gp130 …); test: ELISA, immobilised soluble human gp130, COS1 supernatant, anti-human antibody-HRP
[11] = target: T6, 可溶性ヒトgp130受容体 (soluble human gp130 …); test: SPR, Biacore T200, gp130 amine-coupled on CM5 (266 RU), antibody as analyte

B1: 抗体A (antibody A, mouse anti-human gp130 monoclonal antibody) (antibody, mouse IgG1, kappa, V domains shown)
VH: EVLLQQSGPELVKPGASVKIPCKASGYTFTDYNMDWVKQSHGKSLEWIGDINSHSGGIIYNQKFKDKAILTVDKSSSTAYMELRSLTSEDTAVYYCARTYYVYGHFFDYWGQGTTLTVSS
VL: QSVLTQSPAFISASPGEKVTMTCNVSSSVTSMYWYQQKPGSSPKPWIYLTSNLASGVPPRFSGSGSGTSYSLTISSLEAEDAATYYCQQWSTNPLTFGAGTKLELKR
notes: Mouse IgG1, kappa; also called マウス抗体A; ヒト化前の抗体A(マウス抗体)
B1: binds [1]; binds [2]; binds [3]. The binding result [4] was “binds”, the binding result [5] was “binds” and the Kd [6] was 0.667 nM. For the same binder, the koff [6] was 0.000116 s⁻¹ and the kon [6] was 174000 M⁻¹ s⁻¹.

B2: ヒト化抗体A (H鎖 pFU-AH2, L鎖 AL−4F1) (antibody, V domains shown)
VH: QVQLQQPGAELVQPGTSVRLSCKASGYTFTDYNMDWVKQRPGQGLEWIGDINSHSGGIIYNQKFKDKATLTVDKSSSTAYMQLSSLTSEDSAVYYCTRTYYVYGHFFDYWGQGTLVTVSA
VL: DIQMTQSPSSLSASVGDRVTITCNVSSSVTSMYWYQQKQGKSPQLLVYLTSNLASGVPSRFSGSGSGTQFSLKINNLQPEDFGSYYCQQWSTNPLTFGQGTKLDLKR
notes: also called AL-L4F1 with AH2
B2: binds [7].

B3: ヒト化抗体AH2−L13H10 (antibody, V domains shown)
VH: QVQLQQPGAELVQPGTSVRLSCKASGYTFTDYNMDWVKQRPGQGLEWIGDINSHSGGIIYNQKFKDKATLTVDKSSSTAYMQLSSLTSEDSAVYYCTRTYYVYGHFFDYWGQGTLVTVSA
VL: EIVLTQSPDFQSVTPKEKVTITCNVSSSVTSMYWYQQKPGKAPKLLVYLTSNLASGVPSRFSGSGSGTDFTLTINSLEAEDAATYYCQQWSTNPLTFGQGTKLEIKR
notes: also called AH2−13H10; AH2 with AL-13H10 (AL-L13H10)
With B3 the Kd [8] was 2.27 nM, the koff [8] was 0.000203 s⁻¹ and the kon [8] was 89300 M⁻¹ s⁻¹.

B4: ヒト化抗体AH2−2L14A10 (antibody, human IgG1, kappa, V domains shown)
VH: QVQLQQPGAELVQPGTSVRLSCKASGYTFTDYNMDWVKQRPGQGLEWIGDINSHSGGIIYNQKFKDKATLTVDKSSSTAYMQLSSLTSEDSAVYYCARTYYVYGHFFDYWGQGTLVTVSA
VL: DIQMTQSPSTLSASIGDRVTITCNVSSSVTSMYWYQQKPGKAPKLLIYLTSNLASGVPSRFSGSGSGTDFTLTISSLQPEDFATYYCQQWSTNPLTFGQGTKLEIKR
For B4, the Kd [9] was 1.3 nM, the koff [9] was 0.000202 s⁻¹ and the kon [9] was 155000 M⁻¹ s⁻¹.

B5: ヒト化抗体A (H鎖 pFU-AH2, L鎖 AL−6E6) (antibody, V domains shown)
VH: QVQLQQPGAELVQPGTSVRLSCKASGYTFTDYNMDWVKQRPGQGLEWIGDINSHSGGIIYNQKFKDKATLTVDKSSSTAYMQLSSLTSEDSAVYYCTRTYYVYGHFFDYWGQGTLVTVSA
VL: ELVLTQSPGTLSLSAGERATLSCNVSSSVTSMYWYQQKPGKAPKLLIYLTSNLASGVPSRFSGSGSGTDYTFTISSLQPEDIATYYCQQWSTNPLTFGQGTKVEIKR
notes: also called AL-L6E6 with AH2
B5: binds [7].

B6: ヒト化抗体AH2−2AL4F1 (antibody, human IgG1, kappa, V domains shown)
VH: QVQLQQPGAELVQPGTSVRLSCKASGYTFTDYNMDWVKQRPGQGLEWIGDINSHSGGIIYNQKFKDKATLTVDKSSSTAYMQLSSLTSEDSAVYYCARTYYVYGHFFDYWGQGTLVTVSA
VL: DIQMTQSPSSLSASVGDRVTITCNVSSSVTSMYWYQQKQGKSPQLLVYLTSNLASGVPSRFSGSGSGTQFSLKINNLQPEDFGSYYCQQWSTNPLTFGQGTKLDLKR
notes: also called AH2−2L4F1
B6 was tested, and the Kd [9] was 1.98 nM, the koff [9] was 0.000221 s⁻¹ and the kon [9] was 111000 M⁻¹ s⁻¹.

B7: ヒト化抗体A (H鎖 pFU-AH2, L鎖 AL−14A10) (antibody, V domains shown)
VH: QVQLQQPGAELVQPGTSVRLSCKASGYTFTDYNMDWVKQRPGQGLEWIGDINSHSGGIIYNQKFKDKATLTVDKSSSTAYMQLSSLTSEDSAVYYCTRTYYVYGHFFDYWGQGTLVTVSA
VL: DIQMTQSPSTLSASIGDRVTITCNVSSSVTSMYWYQQKPGKAPKLLIYLTSNLASGVPSRFSGSGSGTDFTLTISSLQPEDFATYYCQQWSTNPLTFGQGTKLEIKR
notes: also called AL-L14A10 with AH2
B7: binds [7].

B8: ヒト化抗体AH2−2L6E6 (antibody, human IgG1, kappa, V domains shown)
VH: QVQLQQPGAELVQPGTSVRLSCKASGYTFTDYNMDWVKQRPGQGLEWIGDINSHSGGIIYNQKFKDKATLTVDKSSSTAYMQLSSLTSEDSAVYYCARTYYVYGHFFDYWGQGTLVTVSA
VL: ELVLTQSPGTLSLSAGERATLSCNVSSSVTSMYWYQQKPGKAPKLLIYLTSNLASGVPSRFSGSGSGTDYTFTISSLQPEDIATYYCQQWSTNPLTFGQGTKVEIKR
B8 showed a Kd [9] of 0.991 nM, a koff [9] of 0.000209 s⁻¹ and a kon [9] of 211000 M⁻¹ s⁻¹.

B9: ヒト化抗体A AH8−AL4 (antibody, V domains shown)
VH: EVQLVQSGAEVKKPGASVKVSCKASGYTFTDYNMDWVRQAPGKGLEWVGDINSHSGGIIYNQKFKDRVTITADRSTSTVYMELSGLRSEDTAVYYCARTYYVYGHFFDYWGKGTLVTVSS
VL: DIQMTQSPSSLSASVGDRVTITCNVSSSVTSMYWYQQKQGKSPQLLVYLTSNLASGVPSRFSGSGSGTDFTLTISSLQPEDFATYYCQQWSTNPLTFGQGTKVEIK
notes: VH on human IgG1 constant region (pFUSEss-CHIg-hG1), VL on human kappa constant region (pFUSE2ss-CLIg-hk); also called AH8-AL4
B9: binds [10].

B10: ヒト化抗体AH2−AL4 (antibody, V domains shown)
VH: QVQLQQPGAELVQPGTSVRLSCKASGYTFTDYNMDWVKQRPGQGLEWIGDINSHSGGIIYNQKFKDKATLTVDKSSSTAYMQLSSLTSEDSAVYYCTRTYYVYGHFFDYWGQGTLVTVSA
VL: DIQMTQSPSSLSASVGDRVTITCNVSSSVTSMYWYQQKQGKSPQLLVYLTSNLASGVPSRFSGSGSGTDFTLTISSLQPEDFATYYCQQWSTNPLTFGQGTKVEIK
notes: VH on human IgG1 constant region (pFUSEss-CHIg-hG1), VL on human kappa constant region (pFUSE2ss-CLIg-hk); also called AH2-AL4
With B10 the Kd [11] was 4.61 nM, the koff [11] was 0.000289 s⁻¹ and the kon [11] was 62700 M⁻¹ s⁻¹.

B11: ヒト化抗体AH2−AL3 (antibody, V domains shown)
VH: QVQLQQPGAELVQPGTSVRLSCKASGYTFTDYNMDWVKQRPGQGLEWIGDINSHSGGIIYNQKFKDKATLTVDKSSSTAYMQLSSLTSEDSAVYYCTRTYYVYGHFFDYWGQGTLVTVSA
VL: DIQMTQSPSTLSASVGDRVTITCNVSSSVTSMYWYQQKPGKAPKLLIYLTSNLASGVPARFSGSGSGTEFTLTISSLQPDDFATYYCQQWSTNPLTFGQGTKVEVK
notes: VH on human IgG1 constant region (pFUSEss-CHIg-hG1), VL on human kappa constant region (pFUSE2ss-CLIg-hk); also called AH2-AL3
B11 showed a Kd [11] of 3.8 nM, a koff [11] of 0.000268 s⁻¹ and a kon [11] of 70600 M⁻¹ s⁻¹.

B12: ヒト化抗体A AH7−AL7 (antibody, V domains shown)
VH: EVQLVQSGAEVKKPGATVKISCKASGYTFTDYNMDWVRQAPGQGLEWIGDINSHSGGIIYNQKFKDWVTMTRDTSINTAYMELRLRSDDTAVYYCARTYYVYGHFFDYWGQGTLVTVSA
VL: DIQMTQSPSTLSASIGDRVTITCNVSSSVTSMYWFQQRPGQAPKVLIYLTSNLASGVPSRFSGSGSGTDFTFTISSLQPEDIATYYCQQWSTNPLTFGGGTKVDIK
notes: VH on human IgG1 constant region (pFUSEss-CHIg-hG1), VL on human kappa constant region (pFUSE2ss-CLIg-hk); also called AH7-AL7
B12: binds [10].

B13: ヒト化抗体A AH7−AL8 (antibody, V domains shown)
VH: EVQLVQSGAEVKKPGATVKISCKASGYTFTDYNMDWVRQAPGQGLEWIGDINSHSGGIIYNQKFKDWVTMTRDTSINTAYMELRLRSDDTAVYYCARTYYVYGHFFDYWGQGTLVTVSA
VL: ELVLTQSPGTLSLSAGERATLSCNVSSSVTSMYWYQQKPGKAPKLLIYLTSNLASGAPSRFSGSGSGTDFTLTISSLQPDDFATYYCQQWSTNPLTFGGGTKLEIK
notes: VH on human IgG1 constant region (pFUSEss-CHIg-hG1), VL on human kappa constant region (pFUSE2ss-CLIg-hk); also called AH7-AL8
B13: binds [10].

B14: ヒト化抗体A AH9−AL7 (antibody, V domains shown)
VH: EVQLVESGGGLVQPGGSLRLSCKASGYTFTDYNMDWVRQAPGKGLEWVGDINSHSGGIIYNQKFKDRFTISADTSKNTAYLQMNSLRAEDTAVYYCARTYYVYGHFFDYWGQGTLVTVSS
VL: DIQMTQSPSTLSASIGDRVTITCNVSSSVTSMYWFQQRPGQAPKVLIYLTSNLASGVPSRFSGSGSGTDFTFTISSLQPEDIATYYCQQWSTNPLTFGGGTKVDIK
notes: VH on human IgG1 constant region (pFUSEss-CHIg-hG1), VL on human kappa constant region (pFUSE2ss-CLIg-hk); also called AH9-AL7
B14: binds [10].
